Patent publication US20140322825A1 (UNIVERSITY OF MARYLAND BALTIMORE, published 2014)
Where a chain is given by its changes, count along the chain named.

T1: asialo-glycophorin A (aGPA) (human, UniProt P02724 20-150, desialylated by mild acid treatment; carries O-linked TFα (Galβ1-3GalNAcα) structures; biotinylated in the flow cytometry assays)
T1 construct: The lambody recognises the glycans on this glycoprotein; also called asialo-GPA
T1 sequence (looked up): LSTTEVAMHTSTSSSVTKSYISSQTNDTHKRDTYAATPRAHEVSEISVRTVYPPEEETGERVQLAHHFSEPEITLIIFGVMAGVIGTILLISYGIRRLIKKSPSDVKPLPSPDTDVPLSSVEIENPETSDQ

B1: lambody VLRB.aGPA.23 (as used in SPR) (other)
chain: ACPSQCSCSGTEVNCAGKSLASVPAGIPTTTRVLYLNSNQITKLEPGVFDRLANLRELHLWGNQLVSLPPGVFDNLANLEKLWLNSNQLTSLPAGLFDRLVNLEHLGLCCMKLTELPSGAFDKLTRLKQLGLDQNQLKSIPDGAFARLPSLTHVWLHTNPWDCQCTDILYLSGWVAQHSSIVGEGWPWRHSPDSAKCSGTNTPVRAVTEASTSPSKCP
notes: Dimeric, yeast-secreted lambody captured on the chip through an anti-His antibody; also called VLRB.GPA.23; not shown: 6-His and FLAG tags plus a dimerization domain
B2: Mut.10 (affinity-improved clone of VLRB.aGPA.23) (other)
chain: B1 chain with S19N, S86G, H105R, K112M, T208S
notes: also called clone Mut.10; not shown: 6-His and FLAG tags plus a dimerization domain

What was measured:
[1] = target: T1, asialo-glycophorin A (aGPA); assay: SPR (Biacore T200), lambody captured by anti-His mAb, aGPA as analyte at 312 pM to 20 nM, 1:1 Langmuir fit
Procedure: Reference subtracted and blank subtracted binding data were fitted with a 1:1 Langmuir binding model to determine the association and dissociation constants. The equilibrium dissociation constants were calculated from these values.
(§1) All SPR binding experiments were performed using Biacore T200 (GE Healthcare). The running and sample buffer was HBS-EP+ (10 mM HEPES, pH 7.4, 150 mM NaCl, 3 mM EDTA, 0.05% Polysorbate 20). All measurements were performed at 25° C. Anti-His antibody (His capture kit, GE Healthcare) was immobilized by amine coupling to Sensor Chip CM5. VLRB.aGPA.23 and Mut.10 were diluted to 10 μg/mL and injected in each cycle at 10 μL/min for 30 seconds, to capture approximately 300 RU. […] Regeneration of the anti-His surface was accomplished using a 60 second injection of 10 mM glycine-HCl pH 1.5. The reference subtracted SPR binding curves were blank subtracted, and curve fitting was performed with a 1:1 model to obtain kinetic parameters using the Biacore T200 Evaluation software.

[2] = target: T1, asialo-glycophorin A (aGPA); assay: SPR (Biacore T200), lambody captured via anti-His mAb, aGPA as analyte, 1:1 Langmuir fit
Procedure: All SPR binding experiments were performed using Biacore T200 (GE Healthcare). The running and sample buffer was HBS-EP+ (10 mM HEPES, pH 7.4, 150 mM NaCl, 3 mM EDTA, 0.05% Polysorbate 20). All measurements were performed at 25° C. Anti-His antibody (His capture kit, GE Healthcare) was immobilized by amine coupling to Sensor Chip CM5. […] Regeneration of the anti-His surface was accomplished using a 60 second injection of 10 mM glycine-HCl pH 1.5. The reference subtracted SPR binding curves were blank subtracted, and curve fitting was performed with a 1:1 model to obtain kinetic parameters using the Biacore T200 Evaluation software.

[3] = target: T1, asialo-glycophorin A (aGPA); assay: SPR (Biacore T200), lambody captured via anti-His mAb, aGPA as analyte
Procedure: as §1

Row | Kd [1] | koff [1] | kon [1] | Kd [2] | fold higher affinity than VLRB.aGPA.23 [3] | Binder
1 | 1.09 nM | 0.000331 s⁻¹ | 303000 M⁻¹ s⁻¹ | 1.1 nM |  | B1
2 | 0.637 nM | 0.000222 s⁻¹ | 349000 M⁻¹ s⁻¹ |  | 1.7 fold | B2
